Measured values: publication PMC9108885 (The Journal of Biological Chemistry, 2022)

Molecular target: human α-synuclein (human, UniProt P37840 1-140, biotin (for BLI, sites not stated); 15N-labelled (for NMR))
Test: BLI

Kd: 1.9 ± 0.03 µM
B1: mouse nicotinamide mononucleotide adenylyltransferase 3 (enzyme)
chain: MKNRIPVVLLACGSFNPITNMHLRLFEVARDHLHQTGRYQVIEGIISPVNDSYGKKDLVASHHRVAMARLALQTSDWIRVDPWESEQAQWMETVKVLRHHHRELLRSSAQMDGPDPSKTPSASAALPELKLLCGADVLKTFQTPNLWKDTHIQEIVEKFGLVCVSRSGHDPERYISDSPILQQFQHNIHLAREPVLNEISATYVRKALGQGQSVKYLLPEAVITYIRDQGLYINDGSWKGKGKTG
